Experimental findings from the nanobody polyreactivity screen of Harvey et al. (2022) are described below.

A short description of the data set: yeast display, Sf9 membrane polyspecificity reagent, FACS + sequencing; frameworks hold sequencing errors. Summed up: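 A nanobody's polyreactivity label depends on the gate it was sorted from. Yeast display cells were stained with 10% biotinylated, detergent-solubilized Sf9 membrane reagent for 1 hour at 4 °C, enriched on streptavidin microbeads and sorted by FACS. The low and high (top ~1%) gates were set on anti-HA fluorescence for expression and streptavidin fluorescence for reagent binding.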
Take “QVQLVESGGGLVQAGGSLRLSCAASGRTYPYAMGLYRQAPGKEREFVAAITSSGGSTYYADSVKGRFTISRDNAKNTVYLQMNSLKPEDTAVYYCAAEYYFLEYDYWGQGTQVTVSS”: the “polyreactivity (PSR sort gate)” value is reported as “low polyreactivity”.

“QVQLVESGGGLVQAGGSLRLICAASGRIFYRNAMGWYRQAPGKERELVAAISGATSTYYADSVKGRFTFSRDNAKNTVYLQMNSLKREDTAVYYCAAKIIWYTIRHGSAGFNYWGQGTQVTVSS”: the “polyreactivity (PSR sort gate)” value is listed as “high polyreactivity”.

“QVQLVESGGGLVQAGGSLRLICAASGSIFTPYAMGWYRQAPGKERELVAAISTSGGSTYYADSVKGRFTISRDNAKNTVYLQMNSLKPEDTAVYYCYTVYYSQREIYYWGYDSWGQGTQVTVSS”: the “polyreactivity (PSR sort gate)” value is recorded as “high polyreactivity”.

For the sequence “QVQLVESGGGLVQAGGSLRLSCPASGSTLVYNDMGWYRQAPGKEREFVAAIRSNDGSTYYADSVKGRFTISRDNAKNTVYLQMNSLKPEDTAVYYCNKDVWDGYDWPEFDYWGQGTQVTVSS”, the “polyreactivity (PSR sort gate)” value was “low polyreactivity”.

As to “QVQLVESGGGLVQAGGSLRLICPASGSIFYYYAMGWYRQAPGKERELVAAISYSDDDTYYADSVKGRFTISRDNAKNTVYLQMNSLKPEDTAVYYCAAEFTIAWSYTMDYWVQGTQVTVSS”, the “polyreactivity (PSR sort gate)” value is reported as “high polyreactivity”.

With “QVQLVESGGGLVQAGGSLRLSCAASGSIFYINPMGWYRQAPGKERELVAAINFSDGRTYYADSVKGRFTISRDNAKNTVYLQMNSLKPEDTAVYYCAAAVYPSEYDYWGQGTQVTVSS”, the “polyreactivity (PSR sort gate)” value is “low polyreactivity”.

On to “QVQLLESGGGLVQAGGSLRLSCAASGFTFGRYAMGWYRQAPGKERELVAAINTSGDRTFYADSVKGRFTISRDNAKNTVYLQMNSLKPVDTAVYYCAADVQSWVYPGSLYYWTYDFWGQGTQVTVSS”, for which the “polyreactivity (PSR sort gate)” value is listed as “high polyreactivity”.

As for “QVQLVESGGGLVQAGGSLRLSCAASGITFGRNTMGWYRQAPGKERELVAAIDSGGNTYAVSVKGRFTISRDNAKNTVYLQMNSLKPEDTAVYYCAVDGGEYSYYGTYDYWGQGTQVTVSS”, the “polyreactivity (PSR sort gate)” value is “low polyreactivity”.

Consider “QVQLVESGGGLVQAGGSLRLSCAASGLIFYNYAMGWYRQAPGKERELVAAISSGGSTYYADSVKGRFTISRDNAKNTVYLQMNSLKPEDTAVYYCAASGPGYSRYTQYDSWGQGTQVTVSS”, for which the “polyreactivity (PSR sort gate)” value is reported as “high polyreactivity”.

Take “QVQLVESGGGLVQAGGSLRLSCAASGRIFGYYSMGWYRQAPGKEREFVSTINSVGSTNYADSVKGRFTISRDNAKNTVYLKMNSLKAEDTAVYYGATDSAYTFFSYRLWRHGYWGQGTQVTVSS”: the “polyreactivity (PSR sort gate)” value is on record as “low polyreactivity”.

Regarding “QVQLVESRGGLVQAGGSLPLSCAPSGRIFVRYAMGWYRQAPGKERELVAAISKSGGTTYYADSVKGRFTISRDNAKNTVYLQMNSLKPEDTAVYYCYALVRRRPGYIRYDYWGQGSQVTVSS”, the “polyreactivity (PSR sort gate)” value was “low polyreactivity”.

Turning to “QFQLVESGGGLVQAGGSLRLSCAASGRIFYPYAMGWYRQATGKEREFVATIRARGGDSTSYADSVKGRFTISRDNAKNTVYLQMNSLKPEDTGVYYCAALFYTYRWRYYVYHLDYWGHGTQVTVSS”, the “polyreactivity (PSR sort gate)” value was “low polyreactivity”.

For the sequence “QVQLVESGGGLVQAGGSLRLSCAASGFTFAHNAMGWYRQAPGKERELLAAISSRGGRTFYADSVKGRFTISRDNAKNTVYLQMNSLKPEDTAVYYCNRVRSVTPSPRYYYWGQGTQVTVSS”, the “polyreactivity (PSR sort gate)” value is on record as “high polyreactivity”.

“KVQLVESGGGLVQAGGSLRLSCAASGRIFGRNAMGGYRQAPGKERELVAAINVSSGGTYYADSVKGRFTISRDNAKNTVYLQMNSLKPEDTAVYFCAARARWAGLRYTRYYYWGQGTQVTVSS”: the “polyreactivity (PSR sort gate)” value was “high polyreactivity”.

Consider “QVQLVESGGGLDQAGGSLRLSCAASGFTFAYNARGRYRQAPGKERELVAAITTRGGGTYYADSVKGRFTISRDNAKYTVYLQMNSLKPEDTAVYYCAAKKSRYPYNYWGQGTQVTVSS”, for which the “polyreactivity (PSR sort gate)” value is “high polyreactivity”.

Consider “QVQLVESGGGIVQAGGSLRLSCAASGIIFYGYAMGWYRQAPGKERELVAVITSGGSTNYADSVKGRFTISRDNAKNTVYLQMNSLKPEDTAVYYCNAGYVSPDYDSWGQGTQVTVSS”, for which the “polyreactivity (PSR sort gate)” value is given as “high polyreactivity”.
